Where two headings read alike, the source gives them in different places.
Assays:
[1] = Circular dichroism wavelength scans and temperature melts (Tm); type: physicochemical
IL-7Rα = biological target: T1, IL-7Rα (Homo sapiens, UniProt P16871); assay: Biolayer interferometry binding to IL-7Rα
T1 construct: IL-7Rα (residues 37-231, Uniprot ID P16871); IgK signal peptide (N); made in house; host or cells: mammalian cells
T1 sequence (P16871 37-231): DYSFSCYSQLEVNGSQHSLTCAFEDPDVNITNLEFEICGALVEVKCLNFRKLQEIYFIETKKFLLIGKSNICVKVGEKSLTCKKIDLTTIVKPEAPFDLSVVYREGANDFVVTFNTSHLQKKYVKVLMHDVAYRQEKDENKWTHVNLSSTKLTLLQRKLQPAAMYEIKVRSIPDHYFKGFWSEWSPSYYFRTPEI

[2] = biological target: T2, EGFR ectodomain (residues 25-525) (human, UniProt P00533 25-525); assay: BLI (Octet); biotinylated target on streptavidin sensors, miniprotein as analyte
T2 construct: also called EGER; Epidermal growth factor receptor

[3] = biological target: Influenza A H3 hemagglutinin (A/Hong Kong/1/1968) ectodomain (Influenza A virus (A/Hong Kong/1/1968), UniProt Q91MA7 17-530); assay: as above
[4] = biological target: T3, Influenza A H1 hemagglutinin (A/Puerto Rico/8/1934), ectodomain (Influenza A virus (A/Puerto Rico/8/1934), UniProt P03452 18-528); assay: method not named in the sentence (FIG. 7b)
T3 construct: extracellular domain

[5] = biological target: VirB8-like protein from Rickettsia typhi (Rickettsia typhi); assay: BLI (Octet); biotinylated target on streptavidin sensors, miniprotein as analyte
VirB8 = type: binding, Rickettsia typhi; conditions: read-out: Octet kD
[6] = biological target: T4, FGFR2 ectodomain (residues 147-366) with C-terminal TEV/His/AviTag (human, UniProt P21802 147-366); assay: biolayer interferometry
T4 construct: range 147-366; also called Fibroblast growth factor receptor 2

[7] = biological target: T5, FGFR2 ectodomain (residues 147-366) (human, UniProt P21802 147-366); assay: BLI (Octet); biotinylated target on streptavidin sensors, miniprotein as analyte
T5 construct: range 147-366; also called FGER2; Fibroblast growth factor receptor 2

[8] = biological target: IL-7Rα ectodomain (residues 37-231) (human, UniProt P16871 37-231); assay: as above
signaling through FGFR2 = assay: Inhibition of native agonist signaling through FGFR2 on cells in culture; type: cell-based; conditions: data not shown
FGFR2 = biological target: T6, FGFR2 (Homo sapiens, UniProt P21802); assay: Biolayer interferometry binding to FGFR2
T6 construct: FGFR2 (residues 147-366, Uniprot ID P21802); IgK signal peptide (N); made in house; host or cells: mammalian cells

[9] = biological target: Human TrkA ECD (residues 36-382) with C-terminal BAP tag and 6xHis tag (human, UniProt P04629 36-382); assay: biolayer interferometry
[10] = biological target: human TrkA ECD (residues 36-382) (human, UniProt P04629 36-382); assay: BLI (Octet); biotinylated target on streptavidin sensors, miniprotein as analyte
InsulinR = biological target: T7, InsulinR (Homo sapiens, UniProt P06213); assay: Biolayer interferometry binding to InsulinR (miniprotein on AR2G biosensor, receptor as analyte)
T7 construct: InsulinR (residues ID 28-953, Uniprot ID P06213); IgK signal peptide (N); TEV cleavage site (C); 6-His-tag (C); AviTag (C); made in house; host or cells: mammalian cells

[11] = biological target: T8, PDGFR ectodomain (residues 33-314) (human, UniProt P09619 33-314); assay: BLI (Octet); biotinylated target on streptavidin sensors, miniprotein as analyte
T8 construct: range 33-314; also called Platelet-derived growth factor receptor

[12] = biological target: T9, Tie2 ectodomain (residues 23-445) (human, UniProt Q02763 23-445); assay: BLI (Octet); biotinylated target on streptavidin sensors, MBP-tagged miniprotein as analyte
T9 construct: range 23-445; also called Angiopoietin-1 receptor

Tie2 = biological target: T10, Tie2 (Homo sapiens, UniProt Q02763); assay: Biolayer interferometry binding to Tie2 (MBP-tagged miniprotein as analyte)
T10 construct: Tie2 (residues 23-445, Uniprot ID Q02763); IgK signal peptide (N); made in house; host or cells: mammalian cells

[13] = biological target: T11, InsulinR ectodomain (residues 28-953) (human, UniProt P06213 28-953); assay: BLI (Octet); miniprotein immobilized on AR2G sensors, insulin receptor as analyte
T11 construct: range 28-953; also called IR; Insulin receptor

IGF1R = biological target: T12, IGF1R (Homo sapiens, UniProt P08069); assay: Biolayer interferometry binding to IGF1R (MBP-tagged miniprotein as analyte)
T12 construct: IGF1R (residues 31-930, Uniprot ID P08069); IgK signal peptide (N); made in house; host or cells: mammalian cells

[14] = biological target: T13, IGF1R ectodomain (residues 31-930) (human, UniProt P08069 31-930); assay: BLI (Octet); biotinylated target on streptavidin sensors, MBP-tagged miniprotein as analyte
T13 construct: range 31-930; also called IGFIR; Insulin-like growth factor 1 receptor

[15] = biological target: T14, TGF-β (Acro Biosystems Cat #TG1-H8217) (human, UniProt P01137 279-390); assay: BLI (Octet); biotinylated target on streptavidin sensors, miniprotein as analyte
T14 construct: also called TGFb; Transforming growth factor beta

[16] = biological target: T15, Biotinylated CD3 protein (Abcam Cat #ab205994) (human, UniProt P04234 22-105); assay: as above
T15 construct: also called CD3δ; CD3 delta chain
T15 sequence (P04234 22-105 limits assumed): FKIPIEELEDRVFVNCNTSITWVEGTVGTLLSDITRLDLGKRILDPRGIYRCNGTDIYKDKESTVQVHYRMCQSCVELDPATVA

T10 sequence (Q02763 23-445): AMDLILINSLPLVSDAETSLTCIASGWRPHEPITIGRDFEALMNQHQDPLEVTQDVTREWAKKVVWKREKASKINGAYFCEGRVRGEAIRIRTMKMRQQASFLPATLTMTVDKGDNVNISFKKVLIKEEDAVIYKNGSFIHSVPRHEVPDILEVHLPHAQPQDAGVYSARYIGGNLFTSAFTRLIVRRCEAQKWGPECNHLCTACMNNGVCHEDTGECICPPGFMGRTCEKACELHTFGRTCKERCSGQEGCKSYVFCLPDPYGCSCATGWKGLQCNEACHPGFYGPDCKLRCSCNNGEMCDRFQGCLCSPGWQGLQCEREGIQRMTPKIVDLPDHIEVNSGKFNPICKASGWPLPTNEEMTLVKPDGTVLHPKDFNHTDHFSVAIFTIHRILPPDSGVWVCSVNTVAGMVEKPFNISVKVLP
T8 sequence (P09619 other isoform, or with tags, fused parts or gaps limits assumed): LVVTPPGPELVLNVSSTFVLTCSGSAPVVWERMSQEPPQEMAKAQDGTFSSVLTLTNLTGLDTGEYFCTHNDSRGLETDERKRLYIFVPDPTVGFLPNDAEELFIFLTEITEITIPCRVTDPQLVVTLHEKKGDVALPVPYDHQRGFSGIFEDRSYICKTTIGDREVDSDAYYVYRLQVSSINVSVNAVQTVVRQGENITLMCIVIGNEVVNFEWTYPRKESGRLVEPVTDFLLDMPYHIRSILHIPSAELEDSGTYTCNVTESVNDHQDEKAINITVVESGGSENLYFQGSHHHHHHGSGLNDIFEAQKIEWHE
Chain of IL-7Rα ectodomain (residues 37-231) (P16871 other isoform, or with tags, fused parts or gaps limits assumed): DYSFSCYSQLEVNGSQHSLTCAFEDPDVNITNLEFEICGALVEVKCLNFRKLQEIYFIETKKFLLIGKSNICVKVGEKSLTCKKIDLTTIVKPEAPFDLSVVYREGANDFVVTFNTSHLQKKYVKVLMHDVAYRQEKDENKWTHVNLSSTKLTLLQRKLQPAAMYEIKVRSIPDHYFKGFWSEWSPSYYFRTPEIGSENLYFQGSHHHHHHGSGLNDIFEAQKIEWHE
T6 sequence (P21802 147-366): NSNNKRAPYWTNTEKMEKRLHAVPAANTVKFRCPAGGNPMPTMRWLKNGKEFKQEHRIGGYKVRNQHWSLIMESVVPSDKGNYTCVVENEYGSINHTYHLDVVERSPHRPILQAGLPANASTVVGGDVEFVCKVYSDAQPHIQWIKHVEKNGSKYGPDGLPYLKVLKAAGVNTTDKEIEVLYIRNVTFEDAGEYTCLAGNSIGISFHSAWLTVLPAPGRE
T9 sequence (Q02763 other isoform, or with tags, fused parts or gaps limits assumed): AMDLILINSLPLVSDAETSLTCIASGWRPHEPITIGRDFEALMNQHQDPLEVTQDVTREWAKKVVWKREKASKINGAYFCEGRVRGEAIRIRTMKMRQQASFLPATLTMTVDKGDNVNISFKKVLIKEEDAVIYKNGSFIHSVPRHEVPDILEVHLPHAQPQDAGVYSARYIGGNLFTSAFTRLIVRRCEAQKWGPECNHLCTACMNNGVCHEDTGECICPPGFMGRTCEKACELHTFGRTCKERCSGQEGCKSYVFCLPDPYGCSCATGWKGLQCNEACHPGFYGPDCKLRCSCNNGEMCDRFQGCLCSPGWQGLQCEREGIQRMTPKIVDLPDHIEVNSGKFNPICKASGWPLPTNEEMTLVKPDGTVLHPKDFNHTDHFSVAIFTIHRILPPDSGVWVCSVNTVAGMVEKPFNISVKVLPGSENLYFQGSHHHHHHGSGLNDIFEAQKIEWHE
Chain of human TrkA ECD (residues 36-382) (P04629 other isoform, or with tags, fused parts or gaps limits assumed): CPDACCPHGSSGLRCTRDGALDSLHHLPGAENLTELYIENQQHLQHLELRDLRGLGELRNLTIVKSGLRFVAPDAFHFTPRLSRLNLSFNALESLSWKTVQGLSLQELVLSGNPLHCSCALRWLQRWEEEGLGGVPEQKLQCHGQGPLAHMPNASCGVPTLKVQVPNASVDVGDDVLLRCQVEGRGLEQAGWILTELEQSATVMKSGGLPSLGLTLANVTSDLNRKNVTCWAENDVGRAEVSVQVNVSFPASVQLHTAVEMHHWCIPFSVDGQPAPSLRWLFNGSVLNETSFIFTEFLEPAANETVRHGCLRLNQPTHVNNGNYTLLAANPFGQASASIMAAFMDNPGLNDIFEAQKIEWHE
T14 sequence (P01137 279-390 limits assumed): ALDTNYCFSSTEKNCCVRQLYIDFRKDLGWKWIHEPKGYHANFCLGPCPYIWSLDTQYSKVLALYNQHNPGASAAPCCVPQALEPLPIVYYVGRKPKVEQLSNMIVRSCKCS
Chain of Human TrkA ECD (residues 36-382) with C-terminal BAP tag and 6xHis tag (P04629 other isoform, or with tags, fused parts or gaps limits assumed): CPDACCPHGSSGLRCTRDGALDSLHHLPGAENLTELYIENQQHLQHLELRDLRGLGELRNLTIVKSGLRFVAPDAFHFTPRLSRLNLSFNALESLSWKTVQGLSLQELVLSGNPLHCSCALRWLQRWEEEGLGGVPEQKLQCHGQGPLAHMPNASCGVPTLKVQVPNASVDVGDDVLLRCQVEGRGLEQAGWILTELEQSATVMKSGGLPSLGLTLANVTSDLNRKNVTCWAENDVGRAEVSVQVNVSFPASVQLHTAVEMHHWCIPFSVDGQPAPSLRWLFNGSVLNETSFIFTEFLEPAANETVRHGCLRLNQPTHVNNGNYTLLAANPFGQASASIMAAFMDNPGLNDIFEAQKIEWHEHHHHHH
T4 sequence (P21802 other isoform, or with tags, fused parts or gaps limits assumed, form in doubt): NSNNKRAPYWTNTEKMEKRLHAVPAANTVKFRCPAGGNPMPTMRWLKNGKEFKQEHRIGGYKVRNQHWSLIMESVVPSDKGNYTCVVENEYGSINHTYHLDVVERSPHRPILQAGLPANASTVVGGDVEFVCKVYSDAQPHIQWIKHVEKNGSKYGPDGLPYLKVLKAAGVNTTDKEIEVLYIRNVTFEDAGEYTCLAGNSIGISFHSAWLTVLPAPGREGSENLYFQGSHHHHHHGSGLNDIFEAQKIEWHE
T5 sequence (P21802 other isoform, or with tags, fused parts or gaps limits assumed, form in doubt): as above

## IL-7Rα_mb (SVIEKLRKLEKQARKQGDEVLVMLARMVLEYLEKGWVSEEDADESADRIEEVLKK)
[1]; optimized sequence
  TM: >95 °C
IL-7Rα; target IL-7Rα, optimized sequence, read-out: Octet kD
  Kd: 0.312 nM

## IL-7Rα binder: de novo miniprotein binder for IL-7Rα targeting the IL-7 binding site; probably IL7Ra_mb2, SEQ ID NO: 760 (SVKKKVRKVEKKARKAGDELAVLLARRVLEALEKGLVSEEDADESADRIEEALKK)
IL-7Rα; targeting the IL-7 binding site
  affinity for IL-7Rα (in words): picomolar affinity

B1: EGFRn_mb (designed binder)
chain: MSHHHHHHHHSENLYFQSGGGDHWEEVFRWALEHLQEATQQNDPQKAKKILEEAHKWLRRELSEEEARAVVRWLKQLVDRELS
[2]
  Kd: 1.7 nM
[1]; optimized sequence
  TM: >95 °C

B2: H3_mb (designed binder)
chain: MSHHHHHHHHSENLYFQSGGGSQHEKFLEWMLRKIEEAIKRGNKISAEFLINLAKNFIHVLGDDEIRRRLERLERQLH
[3]
  Kd: 320 nM
[1]
  TM: >95 °C

B3: H3_mb (optimized H3 hemagglutinin binder, purified from E. coli) (designed binder)
chain: MSHHHHHHHHSENLYFQSGGGSQHEKFLEWMLRKIEEAIKRGNKISAEFLINLAKNFIHVLGDDEIRRRLERLERQLH
[4]
  binding result: binds

B4: VirB8_mb (designed binder)
chain: MSHHHHHHHHSENLYFQSGGGNAEEITEKATLVGIEAWLLAKDEEQKKKVRTLNRQVKKLLQQNDLDQAKRVLDQLKSVLEDLKS
[5]
  Kd: 0.5 nM
VirB8
  Kd: 0.5 nM
[1]
  TM: 66.2 °C

B5: EGFRc_mb (designed binder)
chain: MSHHHHHHHHSENLYFQSGGGSLDEAKKLLQEAEKLARKLNDRMELAYVEFLKHILETAKKQNDKRTIESVRDMARDALEELQS
[2]
  Kd: 6.8 nM
[1]; optimized sequence
  TM: 71.2 °C

B6: FGFR2_mb (optimized FGFR2 binder, purified from E. coli) (designed binder)
chain: MSHHHHHHHHSENLYFQSGGGDRRKEMDKVYRTAFKRITSTPDKEKRKEVVKEATEQLRRIAKDEEEKKKAAYMILFLKTLG
notes: also called FGFR2_mb3
[6]
  Kd: ≤ 1 nM

B7: FGFR2_mb (designed binder)
chain: MSHHHHHHHHSENLYFQSGGGDRRKEMDKVYRTAFKRITSTPDKEKRKEVVKEATEQLRRIAKDEEEKKKAAYMILFLKTLG
[7]
  Kd: 0.543 nM
[1]; optimized sequence
  TM: 71.1 ºC ° C.

B8: IL-7Rα_mb (designed binder)
chain: MSHHHHHHHHSENLYFQSGGGSVIEKLRKLEKQARKQGDEVLVMLARMVLEYLEKGWVSEEDADESADRIEEVLKK
[8]
  Kd: 0.312 nM

B9: FGFR2 binder: optimized de novo miniprotein binder to FGFR2; probably SEQ ID NO: 144 (protein)
chain: DRRKEMDKVYRTAFKRITSTPDKEKRKEVVKEATEQLRRIAKDEEEKKKAAYMILFLKTLG
Signaling through FGFR2
  inhibition of signaling through FGFR2 by the native agonist: strong inhibition of signaling
FGFR2
  affinity for FGFR2 (in words): picomolar

B10: TrkA_mb (optimized TrkA binder, purified from E. coli) (designed binder)
chain: MSHHHHHHHHSENLYFQSGGGRDEIKERIFKAVVRAIVTGNPEQLKEAKKLLEKLKKLGRLDQDAKKFEKAIRQVEKRLRS
[9]
  Kd: ≤ 1 nM

B11: TrkA_mb (designed binder)
chain: MSHHHHHHHHSENLYFQSGGGRDEIKERIFKAVVRAIVTGNPEQLKEAKKLLEKLKKLGRLDQDAKKFEKAIRQVEKRLRS
[10]
  Kd: 1.4 nM

B12: InsulinR binder: optimized de novo miniprotein binder to insulin receptor; probably InsulinR_mb5, SEQ ID NO: 788 (protein)
chain: DEELLELVYEAVEKNDPRLLFEAWMILASLLDKTGDPKIEELLRLLQLVDRGDPDARRRIKELFK
InsulinR
  binding affinity for InsulinR (in words): weak

B13: PDGFR_mb (designed binder)
chain: MSHHHHHHHHSENLYFQSGGGDDERLATLAFRALIKRAGVKNLDVKVTNGKVRVTITGRDQASFKALQLVFALARRLGLQVQIDTR
[11]
  Kd: 53 nM
[1]; optimized sequence
  TM: >95 °C

B14: MBP-tagged Tie2_mb (designed binder)
chain: SIDEELERLLEEAGVDPELIDDLYAVIYQLYIRGLSDKDVLRFLLENLERDGTPLRRVVEELLKR
notes: not shown: N-terminal 6 His-tag and MBP tag
[12]
  Kd: 584 nM

B15: Tie2_mb (protein)
chain: SIDEELERLLEEAGVDPELIDDLYAVIYQLYIRGLSDKDVLRFLLENLERDGTPLRRVVEELLKR
modifications: left off: large carriers
[1]; optimized sequence
  TM: >95 °C

B16: Tie2 binder: optimized de novo miniprotein binder to Tie2; probably Tie2_mb2, SEQ ID NO: 1451 (protein)
chain: SIDEELERLLEEAGVDPELIDDLYAVIYQLYIRGLSDKDVLRFLLENLERDGTPLRRVVEELLKR
Tie2
  binding affinity for Tie2 (in words): weak and low

B17: InsulinR_mb (designed binder)
chain: MSHHHHHHHHSENLYFQSGGGDEELMELVYEAVEKNDPELLFEAWMELASLLDETGDPKIEEALGLLQQVDGGNPDAGRRIKELFK
[13]
  Kd: 270 nM
[1]; optimized sequence
  TM: 65 °C ° C.

B18: MBP-tagged IGF1R_mb (designed binder)
chain: STRNAEFIMLLLELCVKSKNDPQVQEYVKKVKKQVERLVGNGDEKKAEEVARKALEYCADG
notes: as for B14
[1]; optimized sequence
  TM: >95 °C
IGF1R
  binding affinity for IGF1R (in words): weak and low
[14]
  Kd: 860 nM

B19: TGF-β_mb (designed binder)
chain: MSHHHHHHHHSENLYFQSGGGHCTIEVVGVDPEKVEAIAAAYGAEVCEKDGKFEIHLDDPHSAESAAVAISVLTNRPVRLQC
[15]
  Kd: 270 nM
[1]; optimized sequence
  TM: >95 °C

B20: CD3δ_mb (designed binder)
chain: MSHHHHHHHHSENLYFQSGGGNHIACEIHNPEAAKEIAKVANVRRVYFIKQPGNRYFVLLKNADPEGVKKVRSKYNVRCVIRE
[16]
  Kd: 612 nM
[1]; optimized sequence
  TM: >95 °C

Source: US20240376156A1, “MULTIPLE DE NOVO DESIGNED PROTEIN BINDING PROTEINS” (UNIVERSITY OF WASHINGTON, priority 2021, published 2024)
